According to patent publication US20040110684:

Target: synthetic peptides derived from the caveolin scaffolding domain (CSD)

B1: endothelial nitric oxide synthase (eNOS), endogenous, human umbilical vein endothelial cells (HUVECs) (protein)
chain: GNLKSVAQEPGPPCGLGLGLGLGLCGKQGPATPAPEPSRAPASLLPPAPEHSPPSSPLTQPPEGPKFPRVKNWEVGSITYDTLSAQAQQDGPCTPRRCLGSLVFPRKLQGRPSPGPPAPEQLLSQARDFINQYYSSIKRSGSQAHEQRLQEVEAEVAATGTYQLRESELVFGAKQAWRNAPRCVGRIQWGKLQVFDARDCRSAQEMFTYICNHIKYATNRGNLRSAITVFPQRCPGRGDFRIWNSQLVRYAGYRQQDGSVRGDPANVEITELCIQHGWTPGNGRFDVLPLLLQAPDDPPELFLLPPELVLEVPLEHPTLEWFAALGLRWYALPAVSNMLLEIGGLEFPAAPFSGWYMSTEIGTRNLCDPHRYNILEDVAVCMDLDTRTTSSLWKDKAAVEINVAVLHSYQLAKVTIVDHHAATASFMKHLENEQKARGGCPADWAWIVPPISGSLTPVFHQEMVNYFLSPAFRYQPDPWKGSAAKGTGITRKKTFKEVANAVKISASLMGTVMAKRVKATILYGSETGRAQSYAQQLGRLFRKAFDPRVLCMDEYDVVSLEHETLVLVVTSTFGNGDPPENGESFAAALMEMSGPYNSSPRPEQHKSYKIRFNSISCSDPLVSSWRRKRKESSNTDSAGALGTLRFCVFGLGSRAYPHFCAFARAVDTRLEELGGERLLQLGQGDELCGQEEAFRGWAQAAFQAACETFCVGEDAKAAARDIFSPKRSWKRQRYRLSAQAEGLQLLPGLIHVHRRKMFQATIRSVENLQSSKSTRATILVRLDTGGQEGLQYQPGDHIGVCPPNRPGLVEALLSRVEDPPAPTEPVAVEQLEKGSPGGPPPGWVRDPRLPPCTLRQALTFFLDITSPPSPQLLRLLSTLAEEPREQQELEALSQDPRRYEEWKWFRCPTLLEVLEQFPSVALPAPLLLTQLPLLQPRYYSVSSAPSTHPGEIHLTVAVLAYRTQDGLGPLHYGVCSTWLSQLKPGDPVPCFIRGAPSFRLPPDPSLPCILVGPGTGIAPFRGFWQERLHDIESKGLQPTPMTLVFGCRCSQLDHLYRDEVQNAQQRGVFGRVLTAFSREPDNPKTYVQDILRTELAAEVHRVLCLERGHMFVCGDVTMATNVLQTVQRILATEGDMELDEAGDVIGVLRDQQRYHEDIFGLTLRTQEVTSRIRTQSFSLQERQLRGAVPWAFDPPGSDTNSP
phosphorylation of eNOS (Ser1177) in atorvastatin-treated HUVECs, immunoblot: blocked the phosphorylation of eNOS
